Like-named read-outs stand apart in the source and are kept apart here. Values belong to the molecule of their own block, whether it stands above or below them. Where no end group is shown, it is not given here.
Experiments:
JUN = JUN (Homo sapiens, UniProt P05412); assay: Direct-binding FRET assay; parameters: made in house; conditions: 37°C; C-terminal rhodamine design; mean or single; read-out: Kd
Experimental: (§1) The direct binding assay was performed manually in 384-well plates and is similar to a previously described assay. Wells were filled with 20 μL of 1 mM TCEP-HCl. A 4 μM stock of acceptor protein was made fresh in 1 mM TCEP-HCl, and 20 μL was titrated in 2-fold dilutions over the wells. […] The direct-binding FRET data were fit as previously described. Briefly, the Kd of the designed peptide homodimer was experimentally determined and used with previously determined target homodimer Kd values to determine the heterodimer Kd. The homodimer Kd values used for the human bZIPs were from; experiments done by […] et al. used the same protein constructs for the human bZIP proteins, the same buffer conditions, and the same assay. The fitting used a system of ordinary differential equations to describe the concentrations of homo and heterodimers formed by the donor (D) and acceptor (A) as a function of the heterodimer Kd. MATLAB was used to simulate the binding experiment for different Kd values, and the value that gave the best agreement between simulation and experiment was assigned. A minimum 15% change in the donor fluorescence upon titrating the acceptor peptide from 0 to 1000 nM was required for a fit to be attempted. If this minimum was not met, the interaction was classified as “NS” for no signal change. […] For such curves, we removed the first five points and re-fit the data.

XBP1 bZIP (Homo sapiens) = XBP1 bZIP (Homo sapiens) (UniProt P17861); conditions: cited from earlier work
ATF3 = molecular target: T1, ATF3 (Homo sapiens, UniProt P18847); assay: Direct-binding FRET assay; conditions: C-terminal rhodamine design, mean or single, read-out: Kd
T1 construct: made in house
T1 sequence (P18847 86-149 limits assumed): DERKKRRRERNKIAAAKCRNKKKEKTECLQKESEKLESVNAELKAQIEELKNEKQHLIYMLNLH
Experimental: as §1

XBP1 = molecular target: T2, XBP1 (Homo sapiens, UniProt P17861); assay: Direct-binding FRET assay; conditions: C-terminal rhodamine design
T2 construct: made in house
T2 sequence (P17861 70-133 limits assumed): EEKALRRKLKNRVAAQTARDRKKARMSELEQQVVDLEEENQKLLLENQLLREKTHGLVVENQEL
Experimental: as §1

[1] = molecular target: BATF2 bZIP, C-terminally fluoresceinated (human) (UniProt Q8N1L9); assay: FRET or BRET; direct-binding FRET at 4°C; 10 nM fluorescein-labelled bZIP (donor), rhodamine-labelled design (acceptor) titrated 0 to 1 μM; 150 mM KCl, 50 mM potassium phosphate pH 7.4, 0.1% Tween-20, 0.1% BSA
BATF2 bZIP, C-terminally fluoresceinated (human), sequence (Q8N1L9 whole entry): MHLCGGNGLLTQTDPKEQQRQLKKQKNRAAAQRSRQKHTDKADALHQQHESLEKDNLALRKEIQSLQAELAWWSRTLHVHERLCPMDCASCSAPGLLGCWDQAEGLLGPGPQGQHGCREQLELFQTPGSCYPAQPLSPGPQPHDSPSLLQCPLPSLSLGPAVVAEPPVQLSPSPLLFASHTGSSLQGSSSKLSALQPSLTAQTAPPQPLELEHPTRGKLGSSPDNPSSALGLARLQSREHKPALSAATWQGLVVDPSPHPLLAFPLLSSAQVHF

[2] = molecular target: T3, Activating Transcription Factor 4 (ATF4) bZIP construct, C-terminally fluoresceinated (human, UniProt P18848 278-351, fluorescein at the C-terminus); assay: FRET or BRET; direct-binding FRET at 37°C; 10 nM fluorescein-labelled bZIP (donor), rhodamine-labelled design (acceptor) titrated 0 to 1 μM; 150 mM KCl, 50 mM potassium phosphate pH 7.4, 0.1% Tween-20, 0.1% BSA; conditions: both partners purified
T3 construct: source: previously described, donated by A.W. Reinke [18]
T3 sequence (looked up): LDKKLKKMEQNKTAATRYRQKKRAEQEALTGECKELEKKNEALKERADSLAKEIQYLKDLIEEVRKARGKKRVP

[3] = molecular target: partner bZIP coiled coil (Protein2); conditions: cited from earlier work
Experimental: Supplement pcbi.1004046.s020.csv, table | column: Kd || Fig 4 Designed bZIP-binding peptides inhibit interactions of native bZIP dimers. […] The dissociation constants at the indicated temperatures are Kd ≤ 1 nM for FOS-JUN, Kd ≤1 nM for XBP1-CREBZF, and Kd = 60 nM for ATF4-FOS, according to [18]. Fluorescence intensities were measured at both 37°C and 23°C, a ...

Kd (ATF3; 37°C): 564 nM
Molecule: NLVAQLEKKNEALKAENAALEIERIQLQDKIEELKYELAAIE [ATF3-d2]

Kd (ATF3; 37°C): ~1000 nM
Molecule: NDLARLENKAEELKVQNRILVDERKYLQREISELHDELAAHE [ATF3-d1]

Kd (ATF3; 4°C): 117 nM | Kd (ATF3; 37°C): ≥ 5000 nM
Molecule: KDAASLENKKEELKVQNRILVDERKYLQMMNSELKDELAAHE [ATF3-d3]

FRET efficiency [1]: 0.65
B1: ATF5-d1, rhodamine-labelled at the N-terminus (designed binder)
chain: GESKEYKKGSGSC(Rhodamine Red C2‑maleimide)GKRIAYLRQRIAELRNENHVLESRIQRMEKEKDALQQDRDHLEYEL

Kd [2]: 4.9 ± 1 nM | FRET efficiency [1]: 0.31
B2: ATF5-d1, rhodamine-labelled at the C-terminus (designed binder)
chain: GESKEYKKGSGSKRIAYLRQRIAELRNENHVLESRIQRMEKEKDALQQDRDHLEYELGC(Rhodamine Red C2‑maleimide)
notes: solubility linker after the His tag; added at the C-terminus for labelling; source: E. coli RP3098, purified (Ni-NTA under denaturing conditions, reverse-phase HPLC)

The remaining lines, values behind:

Molecule: QRALQLQKEKERLEKMNKKLAAEIESLLEERERLESVLNYHE [JUN-d2]
Kd (JUN): 1 nM

Molecule: XBP1 bZIP (from UniProt P17861)
Kd (XBP1 bZIP (Homo sapiens)): 8 nM

Molecule: AETDQLENRVKDLKKKNESLKEEKRQASNKYKALLTNNRSLKVKA [XBP1-d2]
Kd (XBP1; 37°C, mean or single, read-out: Kd): ≥ 5000 nM | binding to XBP1 (XBP1; 4, 23 or 37°C): did not bind detectably

B3: ATF2: native human bZIP coiled coil (protein)
chain: MKFKLHVNSARQYKDLWNMSDDKPFLCTAPGCGQRFTNEDHLAVHKHKHEMTLKFGPARNDSVIVADQTPTPTRFLKNCEEVGLFNELASPFENEFKKASEDDIKKMPLDLSPLATPIIRSKIEEPSVVETTHQDSPLPHPESTTSDEKEVPLAQTAQPTSAIVRPASLQVPNVLLTSSDSSVIIQQAVPSPTSSTVITQAPSSNRPIVPVPGPFPLLLHLPNGQTMPVAIPASITSSNVHVPAAVPLVRPVTMVPSVPGIPGPSSPQPVQSEAKMRLKAALTQQHPPVTNGDTVKGHGSGLVRTQSEESRPQSLQQPATSTTETPASPAHTTPQTQSTSGRRRRAANEDPDEKRRKFLERNRAAASRCRQKRKVWVQSLEKKAEDLSSLNGQLQSEVTLLRNEVAQLKQLLLAHKDCPVTAMQKKSGYHTADKDDSSEDISVPSSPHTEAIQHSSVSTSNGVSSTSKAEAVATSVLTQMADQSTEPALSQIVMAPSSQSQPSGS
modifications: fluorescein at the C-terminus (FRET donor) or TAMRA (FRET acceptor), by assay
notes: native human bZIP coiled coil
Kd ([3]; Protein2 = ATF6 (HS), intra, 5000 assigned if Kd >5,000 nM or no binding): 5000 nM | Kd ([3]; Protein2 = CE20 (CE), inter, 5000 assigned if Kd >5,000 nM or no binding): 5000 nM

B4: ATF5: native human bZIP coiled coil (protein)
chain: MSLLATLGLELDRALLPASGLGWLVDYGKLPPAPAPLAPYEVLGGALEGGLPVGGEPLAGDGFSDWMTERVDFTALLPLEPPLPPGTLPQPSPTPPDLEAMASLLKKELEQMEDFFLDAPPLPPPSPPPLPPPPLPPAPSLPLSLPSFDLPQPPVLDTLDLLAIYCRNEAGQEEVGMPPLPPPQQPPPPSPPQPSRLAPYPHPATTRGDRKQKKRDQNKSAALRYRQRKRAEGEALEGECQGLEARNRELKERAESVEREIQYVKDLLIEVYKARSQRTRSC
modifications: fluorescein at the C-terminus (FRET donor) or TAMRA (FRET acceptor), by assay
notes: native human bZIP coiled coil
Kd ([3]; Protein2 = CEBPE (HS), intra): 27.8 nM | Kd ([3]; Protein2 = CI20 (CI), inter): 551 nM

Source: paper PMC4335062, “Data-Driven Prediction and Design of bZIP Coiled-Coil Interactions” (PLoS Computational Biology, 2015)
